Measurements taken from the nanobody polyreactivity screen of Harvey et al. (2022).

Assay: yeast display, Sf9 membrane polyspecificity reagent, FACS + sequencing; frameworks hold sequencing errors
Procedure, shortened: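 Genes from sorted yeast were amplified by colony PCR, read by MiSeq 2 × 250 sequencing and filtered on CDR length. These cells carried a synthetic nanobody library in Saccharomyces cerevisiae BJ5465 and were sorted by FACS into low and high (top ~1%) gates on anti-HA and streptavidin fluorescence. Polyreactivity is labelled according to the gate of origin.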

Sequence | polyreactivity (PSR sort gate)
QVQLQESDGGLVQAGGSLRLSCAASGSISPQYYMGWYRQAPGKEREFVAISKGTTTYYADSVKGRLTISRVNAKNTVYLQMNSLKPEDTAVYCCAAGRWLQNVHAYWDQGTQVTVSS | low polyreactivity
QVQLVQSGGGLVQAGGSLRLSCAASQNAMGWYRQAPGKERELVAAISKGGGRTYYADSVKGRFTISRDNAKNTVYLQMNSLKPEDTAVYYCNARYYSSQDADRHEYWGQGTQVTVSS | high polyreactivity
QVQLVESGGGLVQAGGSLRLSCAASGRIFGRNAMGWYRQAPGKERELVAAITYSGGRTYYADSVKGRFTISRDNAKNTVYLQMNSLKPEDTAVYYCAAYSFAYRYNYWGQGTQVTVSS | high polyreactivity
QVQLVESGGGLVQAGGSLRLSCAASGITFSSYAMGWYRQAPGKERELVAGITRRGGITYYADSVKGRFTISRDNAKNTVYLQMNSLKPEDTAVYYCAATHRFRTGSPDGGYGYWGQGTQVTVSS | high polyreactivity
QVQLVESGGGLVQAGGSLRLTCAASGRIFNAYAMGWYRQAPGKEREFVAAISYTVGSTYYADTVKGRFTISRDNAKITVNLQMISLKPEDTAVYYCAATGWDYYGGYDYWGQGTQVTVSS | high polyreactivity
QVQLVESGGGLVQAGGSHRLSCAASGSIFYQYAMGSYRQAPGKERELVAAITWIGSTYYADSVKGRFTISRDNAKNTVYLQMNSLKPEDTAVYYCNTDPYVLQKYDYWGQGTQVTVSS | low polyreactivity
QVQLVESGGGLVQAGGSLRLSCAASGFTFGSNAMGWYRQAPGKERELVAAIRSRGGSTYYADSVKGRFTISRDNAKNTVYLQMNSLKPEDTAVYYCAADFIGRDYDYWGQGTQVTVSS | high polyreactivity
QVQLVESGGGLVQAGGSLRLSCAASGRTFRSYAMGWYRQAPGKERELVAAITRTGSTYYADSVKGRFTISRDNAKNTVYLQMNSLKPEDTAVYYCAARFVYGYDYWGQGTEVTVSS | high polyreactivity
QVQLVESGGGLVQAGGSLRLSCAASGRIFPWNDMGWYRQAPGKERELVAAITYRGGRTYYADSVKGRFTISRDNAKNTVYLQMNSLKPEDTAVYYCAKTRYFSVGPHWDYYYWGQGTQVTVSS | high polyreactivity
QVQLVESGGGLVQAGGSLRLSCAASGSTIINYAMGWYRQAPGKERELVAVITSDDGSTYYADSVKGRFTISRDNAKNTVYLQMNSLKPEDTAVYYCAADYYDQRYRPGPWYDYWGQGSQVTVSS | low polyreactivity
QVQLVESGRGIVQAGGSLRLSCAASGSTLNDYAMGSSRPAPGKERELVAAINGSGGSTYYADSVKGRFTISRDNAKNTVYLQMNSLKPEDTAVYYCAAATTHRRRYGYWGQGTQVTVSS | low polyreactivity
QVQLVESGGGLVQAGGSLRLSCAASGIIFVSNAMGWYRQAPGKERELVATINWSDDSTYYADSVKGRFTISRDNAKNTVYLQMNSLKPEDTAVYYCNKELYPVGDYEYWGLGTQVTVSS | low polyreactivity
QVQLVESGGGLVQAGGSLRLSCAASGRTFRVYAMGWYRQAPGKERELVASITNDGSTYADSVKGRFTISRDNAKNTVYLQMNSLKPEDTAVYFCAARFPQWRYSRRTGERFDYWGQGTQVTVSS | low polyreactivity
QVQLVESGGGLVQAGGSLRLRCAASGLTVRNYAMGWYRQAPRKERDLVAAISSGGGSTYYADSVKGRFTISRDNAKNTVYLQMNSLKPEDTAVYYCAAKRHTSLYVYYYWGQGTQVTVSS | high polyreactivity
QVQLEESGGGLVQAGGSLRLSCAASGSIYTYTMGWYRQAPGKERELVAAISWNGGRTYYADSVKGRFTISRDNAKNTVYLQMNSLKPEDTAVYYCNAAISYSYGYWGQGTQVTVSS | high polyreactivity
QVQLVESGGGLVQAGGSLRLSCAASGLTFRRYGMGWYRQAPGKERELVASISSRGGNTYYADSVKGRFTISRDNAKNTVYLQMNSLKPEDTAVYYCATGVSTRYEYWGQGTQVTVSS | high polyreactivity

Sequence | polyreactivity (PSR sort gate)
QVQLVESGGGLVQAGGSLRLSCAASGSTLSQYAMGLYRQAPGKERELVAAITKSGVRTYYPDSVKGRFTISRDNAKNTVYLQMNSLKREDTAVYYCAKATTKYIAPYDYWGQGTQVTVSS | high polyreactivity
QVQLVESGGGLVQAGGSLRLSCAASGLTFVTYVMGWYRLAPGKERELVAAISYSGGSTYYADSVKARFTISRDNAKNTVYLLMNSLKPEDTAVYYCAAEWYGYEEDDYWGQGTQVTVSS | low polyreactivity
QVQLVESGGGLLQAGGSLRLSCAASGITFVKYTMGWYRQAPGKERELVAAISRSDGRTYYADSVKGRFTISRDNAKNTVYLQMNSLQPEDTEVYYCNAVYGVIGKGYNYWGQGTQVTVSS | high polyreactivity
QVQLVESGGGLVQAGGSLRLSCAASGFTFYYYAMGWYRQAPGKERELVARITSGGSTYYADSVKGRFTISRDNAMYTVYLQMNCLKPEDTAVYYCNVDVSVEVAYWGQGTQVTVSS | low polyreactivity
QVQLVESGGGLVQAGGSLRLSCAASGRIFRGYAMGWYRQAPGKERELVAAINGGDSTYADSVKGRFTISRDNAKNTVFLQMNSLIPEDTAVYYCAAAHYFLGPQGASFYYWGQGTQVTVSS | low polyreactivity
QVQLVESGGGLVQAGGSLRLSCAASGFIFEAYAMGWYRQAPGKERELVAAIDSGGSTDYADSVKGRFTISRDNAKNTVYLQMNSLTPEDTAVYYCIAERAYLLWYNFDYWGQGTKVTVSS | low polyreactivity
QVQLVESGGGLVQAGGSLRLSCAASGITFQNYAMGWYKQAPGKERELVAAITRSGGRTYYADSVKGRFTISRDNAKNTVYLQMNSLKPEDTAVYYCAVYGIGRPYWYDYWGQGTQLTVSS | high polyreactivity
QVQLVESGGGLVQAGGSLRLSCAASGRIFLFYAMGWYRQAPGKERELVAAISSTDDTYYADSVKGRFTISRDNAKNTVYLQMNSLKPEDTAVYYCAAYSIISQSEMYYWGQGTQVTVSS | low polyreactivity
QVQLVESGGGLVQAGGSLRLSCAASGIIFNPYALGWYRHAPGKERELVATISRGGRTNYADSVKGRFTISRDNAKNTVYLQLHSLKPEDTAVYYCNKTASGRYHYDYWGQGTQVTVSS | low polyreactivity
QVQLVESGGGLVQAGGSLRLSCAASGSTFIWYARGWYRQAPGKERELVAAISRSGGSTYYADSVKGRFTISRDNAKNTVYLQMNSLKPEDTAVYYCNTYPTYQYYYWGQGTQVTVSS | high polyreactivity
QVQLVESGGGLVQAGGSLSLSCAASGYIFGPYDMGWYRQAPGKERELVAVIDWSGGSTYYADSVKGRFTISRDNAKNTFYLQMNSLKPEDTAVYYCAADISWGVSQFDYWGQGTQVTVSS | low polyreactivity
QVQLVESGGGLVQAGGSLRLSCAASGSTFQSYAMGWYTQAPGKERELVAAISARGGTTYYADSVKGRFTISRDNAKNTVYLQMNSLKPEDTAVYYCAAEWDTNFWYDYWGQGTQVTVSS | low polyreactivity
QVQLVESGGGLVQAGGSLRLSCAASGSTFPLYTRGWYRQAPGKERELVAAISGGSTTYYADSVKGRFTISRDNAKNTVYLQMNSLKPEDTAVYYCAAYAYTSRWYGFDYWGQGTQVTVSS | low polyreactivity
QVQLVESGGGLVQAGGSLRLSCAASGRTFRVYAMGWYRPAPGKERELVATITSSGGSTYYADSVKGRFTISRDNAKNTVYLQMNSLKPEDTGVYYCNVSVYYNYDSSYYYWGQGTQVTVSS | low polyreactivity
QVQLVESGGGLVQAGGSLRLSCAASGITFVPNAMGWYRQAPGKERELVARIDNGVSTNYADSVKGRFTISRDNAKNTVYLQMNSLKPEDTAVYYCAKDGYWGDWDQYYWGQGTQVTVSS | low polyreactivity
QVQLVESGGGLVQAGGSLRLSCAASGSTFSRYAMGSYRQAPGKERELVAAITGTGGRTYYADSVKGRFTISRDNAKNTVYLQMNSLKPEDTAVYYCAAQRWTVKYNYWGQGTQVTVSS | high polyreactivity
